Data: patent publication US20230065153A1 (HIROSHIMA UNIVERSITY, published 2023)

Columns and labels:
human integrin α10 = biological target: T1, human integrin α10 (human, UniProt O75578 23-1167); experiment: FACS on human integrin α10 introduced CHO cells
T1 construct: whole, on cells
T1 sequence (looked up): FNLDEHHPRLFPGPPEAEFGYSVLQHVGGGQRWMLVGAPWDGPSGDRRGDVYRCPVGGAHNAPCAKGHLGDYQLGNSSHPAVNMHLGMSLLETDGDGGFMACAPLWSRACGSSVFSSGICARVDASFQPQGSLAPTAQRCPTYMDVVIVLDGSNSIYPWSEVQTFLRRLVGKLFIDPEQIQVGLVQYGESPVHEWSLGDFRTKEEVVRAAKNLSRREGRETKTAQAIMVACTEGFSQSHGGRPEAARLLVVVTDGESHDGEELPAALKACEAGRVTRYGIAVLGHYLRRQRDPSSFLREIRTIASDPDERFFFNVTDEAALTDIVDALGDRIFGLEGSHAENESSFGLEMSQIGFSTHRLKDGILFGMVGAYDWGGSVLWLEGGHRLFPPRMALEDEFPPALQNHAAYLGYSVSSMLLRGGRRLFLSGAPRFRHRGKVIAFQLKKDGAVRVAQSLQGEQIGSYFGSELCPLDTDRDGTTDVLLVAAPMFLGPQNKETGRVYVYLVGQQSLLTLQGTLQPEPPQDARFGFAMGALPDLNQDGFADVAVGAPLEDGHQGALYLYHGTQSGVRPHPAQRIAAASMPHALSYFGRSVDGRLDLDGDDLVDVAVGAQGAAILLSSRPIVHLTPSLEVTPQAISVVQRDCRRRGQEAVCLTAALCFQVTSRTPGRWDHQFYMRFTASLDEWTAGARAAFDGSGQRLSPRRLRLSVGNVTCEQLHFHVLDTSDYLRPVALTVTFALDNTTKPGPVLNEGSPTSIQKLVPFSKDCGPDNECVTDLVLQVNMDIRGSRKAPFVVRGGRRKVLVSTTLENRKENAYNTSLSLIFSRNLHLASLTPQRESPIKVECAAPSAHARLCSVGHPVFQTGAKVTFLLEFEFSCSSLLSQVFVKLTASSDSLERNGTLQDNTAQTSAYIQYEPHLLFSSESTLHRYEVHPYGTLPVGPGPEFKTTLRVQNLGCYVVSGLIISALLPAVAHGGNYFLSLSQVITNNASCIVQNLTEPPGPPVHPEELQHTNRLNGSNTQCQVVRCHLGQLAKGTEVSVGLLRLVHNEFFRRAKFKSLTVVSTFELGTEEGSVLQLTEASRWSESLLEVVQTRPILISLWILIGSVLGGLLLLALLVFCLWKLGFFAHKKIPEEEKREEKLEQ
Method: (§1) Reactivity (specificity) with respect to α11 in the antibody which has been converted into IgG was analyzed based on presence or absence of reactivity with respect to other collagen binding integrins α1, α2, and α10. First, reactivity of the antibody with respect to the CHO cell and the human integrin α11 introduced CHO cell was analyzed by FACS. Subsequently, reactivity of the antibody with respect to a human colorectal carcinoma cell line (SW480 cell: cell line expressing endogenous α1 and α2) and a human integrin α10 introduced CHO cell was analyzed by FACS. The reaction conditions of FACS using the IgG antibody are as follows. That is, the antibody as a primary antibody was added to a cell at a concentration of 5 μg/ml to react with the cell on ice for 25 minutes. After washing, PE labeled anti-mouse IgG antibody as a secondary antibody was added to the cell at a concentration of 2 μg/ml to react with the cell on ice for 15 minutes. The subsequent FACS processes were carried out under the same conditions.

[1] = biological target: T2, integrin α1 (endogenous on human colorectal carcinoma SW480 cells) (human, UniProt P56199 29-1179); experiment: FACS on SW480 cells expressing endogenous α1 and α2
T2 construct: whole, on cells
T2 sequence (looked up): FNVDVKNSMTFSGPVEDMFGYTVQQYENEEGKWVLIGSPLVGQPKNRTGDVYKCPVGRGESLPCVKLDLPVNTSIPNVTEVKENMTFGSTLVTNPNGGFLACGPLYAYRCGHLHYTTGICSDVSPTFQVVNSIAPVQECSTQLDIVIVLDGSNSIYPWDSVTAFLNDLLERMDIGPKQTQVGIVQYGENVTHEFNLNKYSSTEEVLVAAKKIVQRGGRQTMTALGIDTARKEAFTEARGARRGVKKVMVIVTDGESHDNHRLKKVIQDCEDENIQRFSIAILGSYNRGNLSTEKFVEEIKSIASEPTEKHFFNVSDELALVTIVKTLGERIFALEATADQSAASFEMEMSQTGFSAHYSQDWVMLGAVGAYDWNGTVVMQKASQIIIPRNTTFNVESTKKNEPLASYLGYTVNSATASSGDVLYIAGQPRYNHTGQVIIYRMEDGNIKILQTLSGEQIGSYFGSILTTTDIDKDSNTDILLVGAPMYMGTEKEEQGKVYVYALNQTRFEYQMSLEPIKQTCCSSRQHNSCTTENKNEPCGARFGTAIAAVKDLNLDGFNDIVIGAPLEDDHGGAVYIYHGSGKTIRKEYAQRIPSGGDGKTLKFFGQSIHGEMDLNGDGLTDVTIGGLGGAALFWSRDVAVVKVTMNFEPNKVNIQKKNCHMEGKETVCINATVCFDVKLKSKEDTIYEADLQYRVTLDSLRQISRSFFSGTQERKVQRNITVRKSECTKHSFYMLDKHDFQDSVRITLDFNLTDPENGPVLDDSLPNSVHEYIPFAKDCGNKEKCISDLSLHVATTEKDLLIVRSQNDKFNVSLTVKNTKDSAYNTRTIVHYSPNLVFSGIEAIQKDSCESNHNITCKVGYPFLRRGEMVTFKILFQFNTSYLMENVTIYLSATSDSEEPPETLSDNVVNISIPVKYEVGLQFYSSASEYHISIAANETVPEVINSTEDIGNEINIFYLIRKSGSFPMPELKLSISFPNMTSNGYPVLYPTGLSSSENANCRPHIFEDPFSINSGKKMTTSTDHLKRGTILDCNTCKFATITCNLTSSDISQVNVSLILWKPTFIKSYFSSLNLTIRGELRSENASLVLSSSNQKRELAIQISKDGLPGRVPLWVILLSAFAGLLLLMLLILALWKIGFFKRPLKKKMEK
Method: as §1

[2] = biological target: T3, integrin α2 (endogenous on human colorectal carcinoma SW480 cells) (human, UniProt P17301 30-1181); experiment: as above
T3 construct: whole, on cells
T3 sequence (looked up): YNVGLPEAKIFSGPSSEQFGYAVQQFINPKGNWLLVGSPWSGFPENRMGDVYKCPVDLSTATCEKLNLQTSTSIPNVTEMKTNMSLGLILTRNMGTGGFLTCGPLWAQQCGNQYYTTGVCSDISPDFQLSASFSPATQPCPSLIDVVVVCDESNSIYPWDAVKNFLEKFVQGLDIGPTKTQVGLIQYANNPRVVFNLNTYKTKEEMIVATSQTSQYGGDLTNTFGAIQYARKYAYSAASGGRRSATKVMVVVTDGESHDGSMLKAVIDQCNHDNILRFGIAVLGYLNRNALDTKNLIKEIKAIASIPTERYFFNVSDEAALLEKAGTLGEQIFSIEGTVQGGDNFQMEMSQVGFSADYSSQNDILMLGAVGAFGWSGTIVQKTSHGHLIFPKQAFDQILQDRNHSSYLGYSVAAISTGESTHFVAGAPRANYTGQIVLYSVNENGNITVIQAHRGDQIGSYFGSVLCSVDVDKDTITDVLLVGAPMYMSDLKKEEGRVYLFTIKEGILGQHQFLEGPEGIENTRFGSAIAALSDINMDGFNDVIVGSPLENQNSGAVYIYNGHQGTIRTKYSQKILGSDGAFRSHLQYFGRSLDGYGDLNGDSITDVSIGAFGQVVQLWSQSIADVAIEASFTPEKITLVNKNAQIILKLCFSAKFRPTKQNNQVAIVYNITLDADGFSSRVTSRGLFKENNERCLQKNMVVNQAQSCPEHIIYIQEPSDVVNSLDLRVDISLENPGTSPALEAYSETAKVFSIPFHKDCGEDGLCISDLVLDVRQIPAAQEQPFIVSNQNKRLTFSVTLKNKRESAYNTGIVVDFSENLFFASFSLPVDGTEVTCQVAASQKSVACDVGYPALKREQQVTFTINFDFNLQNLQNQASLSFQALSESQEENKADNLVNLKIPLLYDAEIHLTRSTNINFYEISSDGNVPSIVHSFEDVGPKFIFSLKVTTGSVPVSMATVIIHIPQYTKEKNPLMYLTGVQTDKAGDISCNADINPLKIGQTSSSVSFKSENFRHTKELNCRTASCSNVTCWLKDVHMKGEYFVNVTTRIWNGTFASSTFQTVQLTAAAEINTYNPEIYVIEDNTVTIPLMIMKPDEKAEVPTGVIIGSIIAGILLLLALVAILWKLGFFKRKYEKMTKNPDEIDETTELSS
Method: as §1

Measured: binding result

B1: wild-type #33 IgG (anti-integrin α11 monoclonal antibody, chicken-mouse chimeric IgG1) (antibody, V domains shown)
VH: AVTLDESGGGLQTPGGALSLVCKGSGFTFSSYGMQWVRQAPGRGLEWVAGIDDDGSFTLYGAAVDGRATISRDNGQTTVRLQLSDLRAEDTATYFCAKGGYGYCWYGDAACIDAWGHGTEVIVSS
VL: AVTQPSSVSANPGETVKITCSGGSDSWYGWYQQKSPGSAPVTVIYSNNQRPSNIPSRFSGSTSGSTSTLTITGVQADDEAVYFCGSRDSSYDGIFGAGTTLTVLK
notes: Chicken VH linked to a mouse IgG1 constant region and chicken VL linked to a mouse Igκ region; His-tagged at the C-terminal; also called the antibody
no binding (tested: 5 µg/ml): human integrin α10 | [1] | [2]
